Data published in doi:10.1101/2022.03.10.483824.

Target: Full length native cardiac myosin II from rabbit heart ventricle (rabbit) (UniProt P04461)
Experiment: optical trapping

maximum AM detachment rate (kcat, at saturating ATP): 88.2 s⁻¹
Substance: Biotinylated actin filament (chicken G actin polymerised with biotinylated G actin) (from UniProt P68139 1-377) (natural protein)
